Measured values as given in patent publication US20240277831A1 (University of Washington, published 2024).

Key:
Monomeric SARS-CoV-2 RBD = Monomeric SARS-CoV-2 RBD (SARS-CoV-2, UniProt P0DTC2 328-531)
[1] = molecular target: RBD-8GS-I53-50A trimeric component (SARS-CoV-2)
[2] = molecular target: RBD-12GS-I53-50A trimeric component (SARS-CoV-2)

B1: monomeric human ACE2 (hACE2) ectodomain (receptor)
chain: STIEEQAKTFLDKFNHEAEDLFYQSSLASWNYNTNITEENVQNMNNAGDKWSAFLKEQSTLAQMYPLQEIQNLTVKLQLQALQQNGSSVLSEDKSKRLNTILNTMSTIYSTGKVCNPDNPQECLLLEPGLNEIMANSLDYNERLWAWESWRSEVGKQLRPLYEEYVVLKNEMARANHYEDYGDYWRGDYEVNGVDGYDYSRGQLIEDVEHTFEEIKPLYEHLHAYVRAKLMNAYPSYISPIGCLPAHLLGDMWGRFWTNLYSLTVPFGQKPNIDVTDAMVDQAWDAQRIFKEAEKFFVSVGLPNMTQGFWENSMLTDPGNVQKAVCHPTAWDLGKGDFRILMCTKVTMDDFLTAHHEMGHIQYDMAYAAQPFLLRNGANEGFHEAVGEIMSLSAATPKHLKSIGLLSPDFQEDNETEINFLLKQALTIVGTLPFTYMLEKWRWMVFKGEIPKDQWMKKWWEMKREIVGVVEPVPHDETYCDPASLFHVSNDYSFIRYYTGTLYQFQFQEALCQAAKHEGPLHKCDISNSTEAGQKLFNMLRLGKSEPWTLALENVVGAKNMNVRPLLNYFEPLFTWLKDQNKNSFVGWSTDWSPYADPLVPR
Kd (Monomeric SARS-CoV-2 RBD): 69 nM
koff (Monomeric SARS-CoV-2 RBD): 0.005 s⁻¹
kon (Monomeric SARS-CoV-2 RBD): 70000 M⁻¹ s⁻¹
Kd [1]: 70 nM
koff [1]: 0.004 s⁻¹
kon [1]: 60000 M⁻¹ s⁻¹
Kd [2]: 78 nM
koff [2]: 0.005 s⁻¹
kon [2]: 60000 M⁻¹ s⁻¹
